In patent US20200040059A1:
Changes are numbered by the printed parent chain. Numbers in names are those of the source.

How the values were obtained:
[1] = target: human ICOS as used for the 'ICOS OD' read-out of Table 14 (human); experiment: binding read as OD; format not described
[2] = target: human CD28, full-length, expressed on transfected Expi293 cells (human) (UniProt P10747); experiment: flow cytometry on CD28-expressing Expi293 cells
[3] = target: T1, CD112R (full length, expressed on transfected cells) (human), Q6DKI7; experiment: flow cytometry on cells expressing the target, 20 nM; settings: remark: other sources report otherwise
T1 chain: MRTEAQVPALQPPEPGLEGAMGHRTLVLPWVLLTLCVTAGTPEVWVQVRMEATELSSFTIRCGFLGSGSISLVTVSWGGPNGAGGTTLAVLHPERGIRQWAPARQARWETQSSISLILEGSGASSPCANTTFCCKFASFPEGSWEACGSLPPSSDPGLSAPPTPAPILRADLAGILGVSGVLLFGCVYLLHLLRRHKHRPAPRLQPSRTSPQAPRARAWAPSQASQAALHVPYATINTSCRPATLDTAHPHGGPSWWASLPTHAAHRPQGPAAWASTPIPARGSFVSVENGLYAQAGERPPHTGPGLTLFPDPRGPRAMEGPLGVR

[4] = target: T1, CD112R (full length, expressed on …); experiment: flow cytometry, 20 nM; ratio to WT CD112 IgV-Fc; settings: remark: other sources report otherwise
[5] = target: T2, human TIGIT, full length, expressed on transfected cells (human) (UniProt Q495A1); experiment: flow cytometry on transfected cells
T2 sequence: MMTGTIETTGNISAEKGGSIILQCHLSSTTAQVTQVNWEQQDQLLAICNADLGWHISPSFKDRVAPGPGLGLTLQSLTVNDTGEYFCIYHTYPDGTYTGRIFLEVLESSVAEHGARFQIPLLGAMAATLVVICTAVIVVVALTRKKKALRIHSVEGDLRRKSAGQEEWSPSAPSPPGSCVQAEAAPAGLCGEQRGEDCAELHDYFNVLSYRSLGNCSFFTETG

[6] = target: CD112R, expressed on transfected cells (human) (UniProt Q6DKI7); experiment: flow cytometry on transfected cells
[7] = target: CD96, expressed on transfected cells (UniProt P40200); experiment: flow cytometry on transfected cells
CD96 = target: T3, CD96 (UniProt P40200); experiment: flow cytometry, cells
T3 sequence (looked up): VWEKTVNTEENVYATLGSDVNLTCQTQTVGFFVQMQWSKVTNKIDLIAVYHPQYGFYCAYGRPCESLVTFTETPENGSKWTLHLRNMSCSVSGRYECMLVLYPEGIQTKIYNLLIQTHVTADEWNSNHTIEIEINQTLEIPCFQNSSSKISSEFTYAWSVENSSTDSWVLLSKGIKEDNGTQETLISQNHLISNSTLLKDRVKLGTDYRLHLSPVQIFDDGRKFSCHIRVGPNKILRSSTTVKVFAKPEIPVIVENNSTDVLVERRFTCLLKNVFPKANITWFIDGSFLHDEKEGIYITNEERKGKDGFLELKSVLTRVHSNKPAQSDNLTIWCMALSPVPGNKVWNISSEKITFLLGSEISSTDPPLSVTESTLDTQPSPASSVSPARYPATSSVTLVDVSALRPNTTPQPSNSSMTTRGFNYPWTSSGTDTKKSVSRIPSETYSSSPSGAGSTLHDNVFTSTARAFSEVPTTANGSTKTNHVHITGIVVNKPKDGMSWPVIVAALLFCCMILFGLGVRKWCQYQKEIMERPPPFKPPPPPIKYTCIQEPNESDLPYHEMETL

CD226 (human) = target: T4, CD226 (human) (UniProt Q15762); experiment: flow cytometry, transfected cells
T4 sequence: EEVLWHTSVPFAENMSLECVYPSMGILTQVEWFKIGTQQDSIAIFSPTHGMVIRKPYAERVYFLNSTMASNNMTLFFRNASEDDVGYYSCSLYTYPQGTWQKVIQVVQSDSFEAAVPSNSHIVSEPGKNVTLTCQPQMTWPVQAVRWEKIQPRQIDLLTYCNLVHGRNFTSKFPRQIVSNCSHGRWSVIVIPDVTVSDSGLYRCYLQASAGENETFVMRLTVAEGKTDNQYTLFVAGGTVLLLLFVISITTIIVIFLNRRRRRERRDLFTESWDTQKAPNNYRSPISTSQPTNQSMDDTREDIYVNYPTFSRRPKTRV

TIGIT (human) [8] = target: T5, TIGIT (human) (UniProt Q495A1); experiment: flow cytometry, transfected cells
T5 sequence: T2 sequence

TIGIT (human) [9] = target: T5, TIGIT (human); experiment: flow cytometry, TIGIT-expressing cells

Sequence of human ICOS as used for the 'ICOS OD' read-out of Table 14 (human) (Q9Y6W8 whole entry): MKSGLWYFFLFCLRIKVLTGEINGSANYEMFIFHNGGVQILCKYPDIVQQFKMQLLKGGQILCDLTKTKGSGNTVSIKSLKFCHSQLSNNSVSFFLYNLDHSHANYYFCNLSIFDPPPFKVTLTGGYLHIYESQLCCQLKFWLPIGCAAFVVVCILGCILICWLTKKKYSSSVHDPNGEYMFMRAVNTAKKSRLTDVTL

B1: ICOSL variant N52S/T113E ECD-Fc fusion (Fc fusion, UniProt O75144 19-256 with N52S T113E, looked up, part only)
extracellular domain: DTQEKEVRAMVGSDVELSCACPEGSRFDLNDVYVYWQTSESKTVVTYHIPQSSSLENVDSRYRNRALMSPAGMLRGDFSLRLFNVTPQDEQKFHCLVLSQSLGFQEVLSVEVELHVAANFSVPVVSAPHSPSQDELTFTCTSINGYPRPNVYWINKTDNSLLDQALQNDTVFLNMRGLYDVVSVLRIARTPSVNIGCCIENVLLQQNLTVGSQTGNDIGERDKITENPVSTGEKNAAT
modifications: extracellular domain human IgG1 Fc fusion
**Q.** Which ICOS OD parental ratio (ratio to WT ICOSL ECD-Fc) [1] does the source give for B1 here?
**A.** 1.76

**Q.** What about the MFI [2] of the same binder?
**A.** 54 MFI

**Q.** And the MFI parental ratio (ratio to WT ICOSL ECD-Fc) [2]?
**A.** 3

B2: ICOSL variant F120S/Y152H/N201S ECD-Fc fusion (Fc fusion, not shown: a dimerising Fc or GST; small tags and cut ends)
chain: B1 extracellular domain with S52N, E113T, F120S, Y152H, N201S
**Q.** With B2 as the binder, how does the MFI [2] read?
**A.** 16 MFI

B3: WT CD112-Fc ECD, Q92692 32-360 (Fc fusion, not shown: a dimerising Fc or GST; small tags and cut ends)
chain: QDVRVQVLPEVRGQLGGTVELPCHLLPPVPGLYISLVTWQRPDAPANHQNVAAFHPKMGPSFPSPKPGSERLSFVSAKQSTGQDTEAELQDATLALHGLTVEDEGNYTCEFATFPKGSVRGMTWLRVIAKPKNQAEAQKVTFSQDPTTVALCISKEGRPPARISWLSSLDWEAKETQVSGTLAGTVTVTSRFTLVPSGRADGVTVTCKVEHESFEEPALIPVTLSVRYPPEVSISGYDDNWYLGRTDATLSCDVRSNPEPTGYDWSTTSGTFPTSAVAQGSQLVIHAVDSLFNTTFVCTVTNAVGMGRAEQVIFVRETPNTAGAGATGG
**Q.** What does the source list for B3?
**A.** MFI at 20 nM [3]: 1250; Fold Increase to WT IgV [4]: 0.75 fold

B4: CD155 variant T45Q, S52M, L104E IgV-Fc (Fc fusion, not shown: a dimerising Fc or GST; small tags and cut ends)
chain: PGTGDVVVQAPTQVPGFLGDSVTLPCYLQVPNMEVTHVSQLQWARHGEMGSMAVFHQTQGPSYSESKRLEFVAARLGAELRNASLRMFGLRVEDEGNYTCEFVTFPQGSRSVDIWL
**Q.** For B4, which MFI at 100 nM [5] is on record?
**A.** 79500

**Q.** What about the MFI at 100 nM [6] of the same binder?
**A.** 2600

**Q.** And the MFI at 100 nM [7]?
**A.** 6310

B5: CD155 variant T45Q, S52R, L104E IgV-Fc (Fc fusion, not shown: a dimerising Fc or GST; small tags and cut ends)
chain: B4 chain with M49R
**Q.** What does the source list for B5?
**A.** MFI at 100 nM [5]: 122000; MFI at 100 nM [6]: 2620; MFI at 100 nM [7]: 3750

B6: CD155 G7E, P18T, Y30C, F91S IgV-Fc (Fc fusion, not shown: a dimerising Fc or GST; small tags and cut ends)
chain: B4 chain with G4E, P15T, Y27C, Q42T, M49S, F88S, E101L
**Q.** What does the source list for B6?
**A.** MFI (CD96): 7910; MFI (CD226 (human)): 12900; MFI (TIGIT (human) [8]): 13000

B7: CD155 variant IgV-Fc P18S, S42G, T45V, F58L, S67W, L104N (Fc fusion, not shown: a dimerising Fc or GST; large carriers; small tags and cut ends)
chain: B4 chain with P15S, S39G, Q42V, M49S, F55L, S64W, E101N
**Q.** For B7, which MFI at 100 nM (TIGIT (human) [9]) is on record?
**A.** 14100 MFI
